T1: PSI domain of RON (G502-P544) thioredoxin fusion protein (human, UniProt Q04912 526-568)
T1 construct: Expressed in E. coli; also called PSI domain alone; not shown: thioredoxin (printed 'thiroedexin') fusion partner; purified on
T1 chain: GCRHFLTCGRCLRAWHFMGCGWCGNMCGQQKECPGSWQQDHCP


Columns and labels:
[1] = biological target: T2, human RON (recepteur d'origine nantais, MST1R), full length, expressed on cells (human, UniProt Q04912 25-1400); assay: flow cytometry on SW480 tumor cells, 4P fit (apparent affinity)
T2 construct: On SW480 tumor cells it is endogenous; also called hRON; SW480-RON cells
Method: The binding of RON antibodies to RON expressing tumor cells was analyzed by flow cytometry, and an apparent affinity was calculated. Confluent SW480 cells were detached with 5 mM EDTA, washed 1× with FACS buffer (1% FCS, 0.05% sodium azide, 1×PBS) and resuspended at 0.5-1.0×10⁷/ml. The cells were added to a 96-well V bottom polypropylene plate at 100 μl/well. Antibody dilutions were made up in FACS buffer at 2× final concentration and added to the plate at 100 μl/well. The plate was incubated for 1 hour at 4° C., followed by washing 3× with FACS buffer. The cell pellets were then resuspended in 150 μl of PE labeled goat anti-murine IgG H & L secondary antibody, diluted 1/200, and incubated for 1 hour at 4° C. The cells were then washed 1× with FACS buffer and fixed with 150 μl 3% formaldehyde at room temperature for 10 minutes. The cell pellets were resuspended in 150 μl FACS buffer and analyzed by FACS. The EC50 of binding was calculated from the binding curves using a standard 4P fit equation.

[2] = biological target: T1, PSI domain of RON (G502-P544) …; assay: ELISA on plate-coated PSI domain thioredoxin fusion
Method: The ability of the antibodies to bind to soluble RON was measured using a standard ELISA protocol. Briefly, soluble RON protein (R&D Systems, catalog 1947) was coated on Nunc Maxisorb ELISA plates at a concentration of […] in PBS overnight at 4° C. Plates were washed 4 times with an automatic washer in PBS, 0.05% Tween 20. Plates were then blocked in PBS+1% BSA for 1-2 hours at room temperature (RT). After washing, serial dilutions of the antibodies in blocking buffer were added to the plate (100 ul/well) and incubated for 1-2 hours at RT. The plate was washed again 4× with automatic washer (PBS, 0.05% tween 20). Next, the plate was incubated with HRP-labelled donkey anti-mouse polyclonal antibody (Jackson Labs 715-035-130) at a dilution of 1:4000 in blocking buffer (100 ul/well) for 0.5-1 hour RT. The plate was washed again 4× with automatic washer (PBS, 0.05% Tween 20). After the final wash step, the plate was developed with TMB solution (25 ml 100 mM sodium acetate, pH to 6 with citric acid, 4 ul 30% H202, 250 ul 42 mM TMB in DMSO) for 5 minutes. The reaction was stopped with 100 ul H₂SO₄. Plates were read at 450 nm wavelength on Molecular Devices Spectramax M5 and Softmax pro V5 software was used to analyze the data.
The PSI domain of RON (G502-P544) was expressed in E. coli as a thiroedexin-fusion protein. The protein was purified on NiNTA agarose (qiagen) followed by preparative size exclusion chromatography (SEC). This protein was used to coat ELISA plates and analyze antibodies for binding using the same protocol described above for binding of antibodies to soluble RON in Example 10.

Binder | EC50 [1] | binding result [2]
1P4A12 murine monoclonal anti-RON antibody (antibody, V domains shown, Whole murine hybridoma antibody; kappa light chain; also called 1P4A12.2; 1.P4A12.2) VH: EVQLQQSGPELVKPGASMKISCKASGYSFTGYTMNWVKQSHGKKLEWIGLINPYNGGTIYNQKFKGKATLTVDKSSSTAYMELLSLTSEDSAVYYCARWLRRGGYAMDYWGQGASVTVSS VL: DILLTQSPAILSVSPGERVSFSCRASQSIGTSIHWYQQRTNGSPRLLIKFASESISGIPSRFSGSGSGTDFTLSINSVESEDIADYYCQQSDSWPLTFGAGTKLEVK | 0.07 nM | no binding
1P5B10 murine monoclonal anti-RON antibody (antibody, V domains shown, Whole murine hybridoma antibody; kappa light chain; also called 1P5B10.3; 1.P5B10.3.10) VH: EVQLQQSGPELVKPGASMKISCRAAGFSFTGYTMNWVKQSHGKSLEWIGLINLNNGGTSHNQKFKGKATLTVDKSSSTAYMELLSLTSEDSAVYYCARWLRRGGYAMDYWGQGISVTVSS VL: DILLTQSPAILSVSPGERVSFSCRASQNIGTSIHWYQQRTNGSPRLLIKYASESISGIPSRFSGSGSGTDFTLSINSVESEDIADYYCQQSDSWPLTFGAGTKLELK | 0.34 nM | no binding
1P2E7 murine monoclonal anti-RON antibody (antibody, V domains shown, Whole murine hybridoma antibody; kappa light chain; also called 1P2E7.3; 1.P2E7.3) VH: DVQLQESGPGLVKPSQSLSLTCTVTGDSITSDYAWNWIRQFPGNKLEWMGYISYSGSTSYNPSLKSRFSITRDTSKNQFFLQLNSVTTEDSATYYCARGGFYYRYAGPGFAYWGQGTLVTVSA VL: not shown | 0.09 nM | no binding

The remaining lines, values ahead:

EC50 [1] | binding result [2] | Binder
0.04 nM | no binding | 1P3B2 murine monoclonal anti-RON antibody (antibody, V domains shown, Whole murine hybridoma antibody; kappa light chain; also called 1P3B2.2; PTA-8813) VH: EVQLQQSGPELEKPGASVKISCKASGYSFTGYNMNWVKQSNGESLEWIGDIDPYYGGTRYNQKFKGKATLTVDKSSSTAYMQLKSLTSEDSAVYYCAREGRGFAYWGQGTLVTVSA VL: DIQMTQSPASLSASVGETVTITCRASENIYSYLAWYQKKQGKSPQLLVYNAKTSVEGVPSRFSGSGSGIQFSLKINSLQPEDFGSYYCHCQHHYGTLPTFGGGTKLEIK
0.07 nM | no binding | 1P4A3 murine monoclonal anti-RON antibody (antibody, V domains shown, Whole murine hybridoma antibody; kappa light chain; also called 1P4A3.3; 1.P4A3.3) VH: EVQLQQSGPELEKPGASVMISCKASGYSFTGYNMNWVKQSTGKSLEWIGDIDPYYDGTRYNQKFKGKATLTADKSSSTAYMQLKSLTSEDSAVYYCTREGRGFAYWGQGTLVTVSA VL: DIQMTQSPASLSASVGETVTITCRASENIYSYLAWYQQKQGKSPQLLVYNAKTLAGGVPSRFSGSGSGTQFSLKINSLQPEDFGSYYCQHYYGTPLTFGAGTKLELK
